The values that follow come from the DeepSol protein solubility set.

The nature of the series: soluble on expression in E. coli; label from the status in PepcDB or PDB records.
As for “MGSDKIHHHHHHMLCALKHLFQGEPQQQAVSGLISTSYTDNDGETRISLKLEPRYENAGEVITKLVELDADPQVVRVGIQSSSIASFGSLENLVNAYGTLYRYLKDNYDSPAKLKKYWGYLANDVVFIQISTDVSSALKIFETINERGVGLNPMDLLKNLLFTQVGQAQFTQLKDEWKKITRPLEKGKEKPLFDHFVMQLENFLFYYIFTKTPTRDMERSFSQWANELRAIADAAECRCHNQWQGIDS”, the “soluble on expression in E. coli” value is “not soluble”. The result for “MMKRNLIGAFIAASTLLSSSVAFSQDKPAYETGMIPADHIMVPDGDIQASIFLISDANGWTEADETRAKALVEKGAAVVGIDFKEYLKALEADDDECIYMISDIESLSQQIQRTAGTGSYRLPIVTGIGKGGTLALAMIAQSPVSTVREAVAVDPKAGLPLEKILCTPATKDKVDGETVYGLTDGALPAPVSVIFTPDADQKGRDHVNALVKLHSDIEVTDVTDKADEVLTQTLSDKVDAAGDSGNPLGLPITVLEAKPVMDTMAVIYSGDGGWRDLDEEVGSALQKQGVPVIGVDALRYFWKEKDPKEVAGDLARIIDTYRKEWKVKNVVLIGYSFGADIIPATYNLLPDRVKSSVAQLSLLGLSNEVDFEISVQGWLGVAGEGKGGKTVDDIAKIDPKLVQCVYGTEEEDEDPCPGLKAKGVETIGIEGGHHFDEDYEALAKRIVTSLKTRLAKLEHHHHHH” reads “soluble”; that for “QGAVRKATAAEIAALPRQKVELVDPPFVHAHSQVAEGGPKVVEFTMVIEEKKIVIDDAGTEVHAMAFNGTVPGPLMVVHQDDYLELTLINPETNTLMHNIDFHAATGALGGGGLTEINPGEKTILRFKATKPGVFVYHCAPPGMVPWHVVSGENGAIMVLPREGLHDGKGKALTYDKIYYVGEQDFYVPRDENGKYKKYEAPGDAYEDTVKVMRTLTPTHVVFNGAVGALTGDKAMTAAVGEKVLIVHSQANRDTRPHLIGGHGDYVWATGKFNTPPDVDQETWFIPGGAAGAAFYTFQQPGIYAYVNHNLIEAFELGAAAHFKVTGEWNDDLMTSVLAPSGT”, “soluble”; that for “MGSDKIHHHHHHMRGKILIFLHAHLPYVHHPEYDHFLEERWLFEAITETYIPLLMMFDEIEDFRLTMSITPPLMEMLSSRDLQEKYERHMEKLIELANKEVERTKKEHPLKHKMAKFYREHFEKILNVFRSYDGNILEGFKKYQETGKLEIVTCNATHAFLPLYQMYPEVVNAQITVGVKNYAKHMTLHPRGIWLAECGYYQGLDLYLAQNNVEYFFVDSHAFWFADEQPRYGVYRPIMTPSGVFAFARDPESSEQVWSAAVGYPGDPRYREFYRDIGFDREMEYIKDYIDPSGVRINTGIKYHRITSKSLDASQKEYYDIDLAMEAVEEHARDFLHKKESQARRLMDIMGVEPVIVAPFDAELFGHWWFEGVFFLKRFFELVNESKDLKLVTASEVIDTLEEVQIATPADSSWGAGGYYETWLNGTNDWIYRHLHEMIERMIDLSKKYYNSSDPLVERVLNQMLRELFLAQSSDWAFIMTTRTSVQYAENRTKLHIKRFLNLYDQLVSGRIDEEMLRYYEWTDAIFPEINFRVMARDVI”, “not soluble”. Consider “MALLEICCYSMECALTAQQNGADRVELCAAPKEGGLTPSLGVLKSVRQRVTIPVHPIIRPRGGDFCYSDGEFAAILEDVRTVRELGFPGLVTGVLDVDGNVDMPRMEKIMAAAGPLAVTFHRAFDMCANPLYTLNNLAELGIARVLTSGQKSDALQGLSKIMELIAHRDAPIIMAGAGVRAENLHHFLDAGVLEVHSSAGAWQASPMRYRNQGLSMSSDEHADEYSRYIVDGAAVAEMKGIIERHQAKLEHHHHHH”, for which the “soluble on expression in E. coli” value is “soluble”. With “MFIKAERLLIRKFEFKDWEAVHEYTSDSDVMKYIPEGVFTEEDTRNFVNKNMGENAKNFPVILIGENILVGHIVFHKYFGEHTYEIGWVFNPKYFNKGYASEAAQATLKYGFKEMKLHRIIATCQPENTPSYRVMEKIGMRREGYFKKCIPHGNEWWDEYYYAILEEE”, the “soluble on expression in E. coli” value is listed as “soluble”. As to “MTTLLRLATAGSVDDGKSTLIGRLLYDSKAVMEDQWASVEQTSKDRGHDYTDLALVTDGLRAEREQGITIDVAYRYFATPKRKFIIADTPGHIQYTRNMVTGASTAQLVIVLVDARHGLLEQSRRHAFLASLLGIRHLVLAVNKMDLLGWDQEKFDAIRDEFHAFAARLDVQDVTSIPISALHGDNVVTKSDQTPWYEGPSLLSHLEDVYIAGDRNMVDVRFPVQYVIRPHTLEHQDHRSYAGTVASGVMRSGDEVVVLPIGKTTRITAIDGPNGPVAEAFPPMAVSVRLADDIDISRGDMIARTHNQPRITQEFDATVCWMADNAVLEPGRDYVVKHTTRTVRARIAGLDYRLDVNTLHRDKTATALKLNELGRVSLRTQVPLLLDEYTRNASTGSFILIDPDTNGTVAAGMVLRDVSARTPSPNTVRHRSLVTAQDRPPRGKTVWFTGLSGSGKSSVAMLVERKLLEKGISAYVLDGDNLRHGLNADLGFSMADRAENLRRLSHVATLLADCGHLVLVPAISPLAEHRALARKVHADAGIDFFEVFCDTPLQDCERRDPKGLYAKARAGEITHFTGIDSPYQRPKNPDLRLTPDRSIDEQAQEVIDLLESSS”, the “soluble on expression in E. coli” value is reported as “not soluble”. Take “MGSDKIHHHHHHMTLLDEAVVLNDGSLMPKVGVVVGNKPADDAIKAGYRLIDCSLDQKTKLKAENPQLYVEVQVPEDVITRDDFKKIRQDIIDHHADLCLLKLSDNKEKNGQIWQELEQLKIQGWIKNIGVINISVDALNELLNHTQVRPCVAQISYEDQGLINLARENRIQVEIPVHGDINALAEIASHYGTSSVELVMRYFSQKGIVPLFEIEDVVENPRINFTINAEDLATIGQLFAQK”: the “soluble on expression in E. coli” value is recorded as “not soluble”. Consider “MSLAPPVRSLHIGTVAGFTADPQHLDRIAIHLPALNLPDSLIFARLSKPWASHASGFCFYPEPGDEVVVGFIDSDPRYPMILGALHNPKNTAPFPPDEKNNRKGLIVSQADQTQALMIDTEEKTLRLMAGDNTLTLTGEGNLTMSTPNALQLQADTLGLQADSNLSIAGKQQVEITSAKINMKEGHHHHHH”, for which the “soluble on expression in E. coli” value is recorded as “soluble”. As for “MKKPKHDLTHVRHDPAHCLAPGLFRSLKRGDRKRCKLDVTYTFGEDESMRFVGFEPLGADDMRLLQGIVALGGPNGILLTPEPTSETGRQLRLFLEPRFEAIEQDGLVVRESLTKLLSETGMTDSGDNIKALKASLLRMSNVTILVTKGRRQAAFHLMSHAFDETDGRLWVALNPRIAEAILGHRPYARIDMAEVRVLQTDPARLMHQRLCGWIDPGKSGRVELDTLCGYVWPDEANAEAMKKRRQTARKALAELAAVGWVVNEYAKGKWEIKRPGPTATAPVYRRNVPLLPS”, the “soluble on expression in E. coli” value is given as “not soluble”.

For “MGSDKIHHHHHHMDFDMIEEKKDSVIVRNVENFELKDIFDCGQCFRWHRQENGNYIGIAFEKVVEVQKIGEDVVIYNINEEEFKNVWSEYFDLYRDYGEIKKELSRDPLLKKSVDFGEGIRILRQDPFEILLSFIISANNRIPMIKKCINNISEKAGKKLEYKGKIYYAFPTVDKLHEFTEKDFEECTAGFRAKYLKDTVDRIYNGELNLEYIKSLNDNECHEELKKFMGVGPKVADCIMLFSMQKYSAFPVDTWVKKAMMSLYVAPDVSLKKIRDFGREKFGSLSGFAQQYLFYYARENNIQL”, the “soluble on expression in E. coli” value is reported as “not soluble”. Regarding “MNAEIASEIVAEIPLWSQELPDTQEIIASLISSNLFPLIYTEQDYLEIANASAGLYISDIIHCLTDIRKNHDLGNSSEIAKLLLAKKIQLLNRLYDIEFLPPPKVQLGGLELMQQSFKKFKRLLTPRAKQYNLRVPKGIMLEHHHHHH”, the “soluble on expression in E. coli” value is recorded as “not soluble”. As to “GSQEQKGDAPTCGICHKTKFADGCGHNCSYCQTKFCARCGGRVSLRSNKVMWVCNLCRKQQE”, the “soluble on expression in E. coli” value is “soluble”. Consider “MGSDKIHHHHHHMLSNLWKRQAPQMVGIDIGSHEIKAILLSKTADGYKILSHAAVPVKKGAVNDHEIRDSDAVLESLRLIKRSLPKSVKYAAAAVSGSAVMTKVIYMDASLSEEEMETQIEIEADNLIPYSLDEVSIDFETLSVNSADPSKVDVLLSACRTENIDARVDSLDDINLEAKVIDVEGYALGRSFELVAAQLPDGAEDKVVALVDIGANMTTFAVVEKGETTFIREQAFGGEQFTQSILSFYGMSHEQAEKAKLEGDLPRNYMFEVLSPFQTQLLQQIKRTLQIYCTSSGKDKVDHIVLCGGTSKLEGMANLLTNELGVHTIIADPFLGCLHADEQVKTQLQPTINKYMVACGLALRSYSQWRT”, for which the “soluble on expression in E. coli” value is recorded as “not soluble”.
